Experimental findings from patent US20260201068A1 (UNIVERSIT DE GEN VE, published 2026) are described below.

Where a chain is given by its changes, count along the chain named. A value given as a limit tells only on which side of the number the result lay.

For test [1], the target named is T1, human PTPRZ1 extracellular portion (domains 1 plus 2) knocked in and shown on Ge518_PTPRZ1-KI cells (human, UniProt P23471 25-413, limits assumed).
T1 construct: domain: extracellular portion (domains 1 plus 2); parental Ge518 has low PTPRZ1 expression; also called receptor-type tyrosine-protein phosphatase zeta
T1 sequence (P23471 25-413 limits assumed): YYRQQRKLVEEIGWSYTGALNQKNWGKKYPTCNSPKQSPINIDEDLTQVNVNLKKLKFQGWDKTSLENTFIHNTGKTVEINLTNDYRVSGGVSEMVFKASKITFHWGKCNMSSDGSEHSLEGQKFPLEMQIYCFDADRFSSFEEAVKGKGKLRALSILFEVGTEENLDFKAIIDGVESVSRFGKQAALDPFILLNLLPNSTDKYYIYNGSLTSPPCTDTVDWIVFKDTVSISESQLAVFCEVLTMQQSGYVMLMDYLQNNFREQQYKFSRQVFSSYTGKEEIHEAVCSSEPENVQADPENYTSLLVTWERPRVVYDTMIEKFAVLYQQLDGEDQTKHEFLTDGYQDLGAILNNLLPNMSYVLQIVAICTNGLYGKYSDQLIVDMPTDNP
In words: flow cytometry on Ge518_PTPRZ1-KI cells, scFv conjugated to rabbit Fc, anti-rabbit IgG AlexaFluo488. From the text:
The GBM cell line Ge518, obtained in our lab from a patient tumor resection, was used as a tumor model to evaluate CAR T cell efficacy. As PTPRZ1 expression was low in these cells, the antigen was overexpressed by introducing (knock-in) an extracellular portion (domains 1 plus 2) of the human PTPRZ1 molecule under the EF1a promoter, using a 3rd generation LV vector with puromycin selection.

The target of test [2] is human PTPRZ1 extracellular portion (domains 1 plus 2) knocked in and shown on Ge518_PTPRZ1-KI cells (human) (UniProt P23471). In words: cell-based or functional assay.
Chain of human PTPRZ1 extracellular portion (domains 1 plus 2) knocked in and shown on Ge518_PTPRZ1-KI cells (human) (P23471 25-413 limits assumed): as above

B1: anti-PTPRZ1 scFv RRB473 conjugated to a rabbit Fc (Fc fusion)
scFv: MAQVQLVESGGGVVQPGRSLRLSCAASGFTFSSYAMHWVRQAPGKGLEWVAVISYDGSNKYYADSVKGRFTISRDNSKNTLYLQMNSLRAEDTAVYYCARDQDDSSDAFDIWGQGTLVTVSSGGGGSGGGGSGGGGSTQSVLTQPPSVSAAPGQKVTISCSGSSSNIGNNYVSWYQQLPGTAPKLLIYDNNKRPSGIPDRFSGSKSGTSATLGITGLQTGDEADYYCGTYDYIATRAVFGGGTKLTVLGAA
notes: scFv conjugated to a rabbit Fc for flow cytometry; also called scFv 473; not shown: rabbit Fc
For B1, the “level of recognition (percent, flow cytometry)” value in test [1] was no less than 80%.

B2: anti-PTPRZ1 scFv RRB476 conjugated to a rabbit Fc (Fc fusion)
scFv: B1 scFv with Y230W, I233K, A234V, T235S, A237L
notes: scFv conjugated to a rabbit Fc for flow cytometry; also called scFv 476; not shown: rabbit Fc
As to B2, the “level of recognition (percent, flow cytometry)” value in test [1] is no less than 80%.

B3: anti-PTPRZ1 scFv RRB471 conjugated to a rabbit Fc (Fc fusion)
scFv: MAEVQLVESGGGLVQPGGSLRLSCAASGFTFSSYSMNWVRQAPGKGLEWVSYISSSSSTIYYADSVKGRFTISRDNAKNSLYLQMNSLRAEDTAVYYCARPGYGDFPGAFDIWGQGTLVTVSSGGGGSGGGGSGGGGSTQSALTQPASVSGSPGQSITISCTGTSSDVGGYNYVSWYQQHPGKAPKLMIYEVSNRPSGVSNRFSGSKSGNTASLTISGLQAEDEADYYCSSYDWATYGSVFGGGTKLTVLGAA
notes: scFv conjugated to a rabbit Fc for flow cytometry; not shown: rabbit Fc
B3: the “level of recognition (percent, flow cytometry)” value in test [1] is no less than 80%.

B4: anti-PTPRZ1 471_28z chimeric antigen receptor (on RNA CAR T cells) (protein, part only; not given: CD3zeta signalling domain, part only)
chain, part: MAEVQLVESGGGLVQPGGSLRLSCAASGFTFSSYSMNWVRQAPGKGLEWVSYISSSSSTIYYADSVKGRFTISRDNAKNSLYLQMNSLRAEDTAVYYCARPGYGDFPGAFDIWGQGTLVTVSSGGGGSGGGGSGGGGSTQSALTQPASVSGSPGQSITISCTGTSSDVGGYNYVSWYQQHPGKAPKLMIYEVSNRPSGVSNRFSGSKSGNTASLTISGLQAEDEADYYCSSYDWATYGSVFGGGTKLTVLGAAESKYGPPCPPCPFWVLVVVGGVLACYSLLVTVAFIIFWVRSKRSRGGHSDYMNMTPRRPGPTRKHYQPYAPPRDFAAYRS
On to B4, for which the killing of Ge518 PTPRZ1-KI target cells by CAR T cells, E:T 3:1 in test [2] turned out to be 80%.

B5: anti-PTPRZ1 scFv RRB469 conjugated to a rabbit Fc (Fc fusion)
scFv: MAQVQLVESGGGVVQPGRSLRLSCAASGFTFSSYAMHWVRQAPGKGLEWVAVISYDGSNKYYADSVKGRFTISRDNSKNTLYLQMNSLRAEDTAVYYCARGSGYSYGPGYDAFDIWGQGTLVTVSSGGGGSGGGGSGGGGSTNFMLTQPHSVSESPGKTVTISCTRSSGSIASNYVQWYQQRPGSSPTTVIYEDNQRPSGVPDRFSGSIDSSSNSASLTISGLKTEDEADYYCQSWDPVFGVFGGGTKLTVLGAA
notes: Flow cytometry was done with the scFvs conjugated to a rabbit Fc, detected with anti-rabbit IgG AlexaFluo488; also called scFv 469; not shown: rabbit Fc
Regarding B5, the “level of recognition (percent, flow cytometry)” value in test [1] is no less than 80%.
